Measurements from US20220146535A1.

How the values were obtained:
[1] = molecular target: recombinant hTau-pT217 protein having the amino acid sequence of SEQ ID NO: 1 (human) (UniProt P10636); experiment: BLI (Octet Red96), antibody captured on Protein A biosensor, hTau-pT217 in solution, 1:1 fit, 25 C; column head prints (M^-1s^-1 units), paragraph 52 says s^-1
[2] = molecular target: T1, N-terminal biotin labeled peptide of SEQ ID NO. 26 without phosphorylated threonine at residue 7 (human); experiment: BLI (Octet Red96), biotinylated peptide on streptavidin biosensor, IgG at 5 ug/mL, 300 s association and 300 s dissociation
T1 sequence (peptide, N-terminal biotin; threonine at residue 7 not phosphorylated): RTPSLPTPPTR

[3] = molecular target: N-terminal biotin labeled peptide of SEQ ID NO. 26 with phosphorylated threonine at residue 7 (human); experiment: as above
[4] = molecular target: recombinant hTau-pT217 protein having the amino acid sequence of SEQ ID NO: 1 (human) (UniProt P10636); experiment: BLI (Octet Red96), antibody captured on Protein A biosensor, hTau-pT217 in solution, KD=koff/kon; column head prints (nM), paragraph 52 says molar units; not normalized for avidity
[5] = molecular target: recombinant hTau-pT217 protein having the amino acid sequence of SEQ ID NO: 1 (human) (UniProt P10636); experiment: BLI (Octet Red96), antibody captured on Protein A biosensor, hTau-pT217 0.4115-300 nM in solution, 1:1 fit, 25 C

UniProt P10636, sequence (P10636 other isoform, or with tags, fused parts or gaps limits assumed): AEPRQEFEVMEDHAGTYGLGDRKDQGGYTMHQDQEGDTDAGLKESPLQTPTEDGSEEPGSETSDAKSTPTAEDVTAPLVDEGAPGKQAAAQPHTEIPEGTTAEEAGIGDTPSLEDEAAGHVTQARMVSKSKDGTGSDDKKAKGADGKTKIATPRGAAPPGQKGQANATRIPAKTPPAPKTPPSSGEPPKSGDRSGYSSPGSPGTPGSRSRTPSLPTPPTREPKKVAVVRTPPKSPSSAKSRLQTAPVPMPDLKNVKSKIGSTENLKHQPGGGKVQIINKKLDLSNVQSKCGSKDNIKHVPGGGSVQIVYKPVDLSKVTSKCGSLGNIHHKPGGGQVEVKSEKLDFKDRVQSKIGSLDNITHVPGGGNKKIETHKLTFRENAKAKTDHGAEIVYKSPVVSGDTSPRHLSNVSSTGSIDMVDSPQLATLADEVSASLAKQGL

B1: mAb A, exemplified rabbit anti-hTau-pT217 antibody (antibody)
heavy: QSVEESGGRLVTPGTPLTLTCTVSGLSPSWYGVHWVRQAPGKGLEWIGVLRAGSHTYYAGWAKGRFAISKTSTTVALKITSPTTEDTAIYFCGSVGRGIWGPGTLVTVSLGQPKAPSVFPLAPCCGDTPSSTVTLGCLVKGYLPEPVTVTWNSGTLTNGVRTFPSVRQSSGLYSLSSVVSVTSSSQPVTCNVAHPATNTKVDKTVAPSTCSKPTCPPPELLGGPSVFIFPPKPKDTLMISRTPEVTCVVVDVSQDDPEVQFTWYINNEQVRTARPPLREQQFNSTIRVVSTLPIAHQDWLRGKEFKCKVHNKALPAPIEKTISKARGQPLEPKVYTMGPPREELSSRSVSLTCMINGFYPSDISVEWEKNGKAEDNYKTTPAVLDSDGSYFLYSKLSVPTSEWQRGDVFTCSVMHEALHNHYTQKSISRSPGK
light: AQVLTQTASPVSATVGGTVTINCQASLAVYNNNYLAWYQQKPGQPPKRLIYLASSLSSGVSSHFKGSGSGTQFTLTISDVQADDAATYFCQGSYDCTIADCVAFGGGTEVVVKGDPVAPTVLIFPPAADQVATGTVTIVCVANKYFPDVTVTWEVDGTTQTTGIENSKTPQNSADNTYNLSSTLTLTSTQYNSHKEYTCKVTQGTTSVVQSFNRGDC
B1 gave a koff [1] of 0.000236 s⁻¹, a binding signal at the end of dissociation [2] of -0.0024 nm and a binding signal at the end of dissociation [3] of 4.42 nm. For the same binder, the Kd [4] was 0.695 nM and the kon [5] was 339000 M⁻¹ s⁻¹.
